Results: patent US20040072255

Key:
[1] = test system: rat fast skeletal troponin I, beta or diphosphorylated form
[2] = test system: rat fast skeletal troponin I, alpha or monophosphorylated form
rat fast skeletal troponin I, alpha or monophosphorylated form, sequence (chain, as listed by the source): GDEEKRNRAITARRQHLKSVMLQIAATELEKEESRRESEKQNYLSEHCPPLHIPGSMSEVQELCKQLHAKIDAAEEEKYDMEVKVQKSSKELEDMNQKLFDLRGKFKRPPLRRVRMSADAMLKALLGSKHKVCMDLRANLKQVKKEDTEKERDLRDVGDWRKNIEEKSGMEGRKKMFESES

rat fast skeletal troponin I, beta or diphosphorylated form, sequence (chain, as listed by the source): as above

Protein phosphatase-1 (Sigma)
dephosphorylation of myofibrils prior to 2-dimensional SDS-PAGE [1]: Neither form was evident in samples after dephosphorylation with PP-I
dephosphorylation of myofibrils prior to 2-dimensional SDS-PAGE [2]: Neither form was evident in samples after dephosphorylation with PP-I
